Target: His-Tagged rhFc(gamma) receptor I (recombinant human Fc(gamma)R-I; Acro Biosystems, catalog# FCA-H52H1) (human)
Assay: ELISA, fusion protein coated at 10 ug/mL, His-tagged rhFc(gamma)RI in solution, anti-His-HRP

His-Tagged rhFc(gamma) receptor I (recombinant human Fc(gamma)R-I; Acro Biosystems, catalog# FCA-H52H1) (human), sequence (P12314 16-292): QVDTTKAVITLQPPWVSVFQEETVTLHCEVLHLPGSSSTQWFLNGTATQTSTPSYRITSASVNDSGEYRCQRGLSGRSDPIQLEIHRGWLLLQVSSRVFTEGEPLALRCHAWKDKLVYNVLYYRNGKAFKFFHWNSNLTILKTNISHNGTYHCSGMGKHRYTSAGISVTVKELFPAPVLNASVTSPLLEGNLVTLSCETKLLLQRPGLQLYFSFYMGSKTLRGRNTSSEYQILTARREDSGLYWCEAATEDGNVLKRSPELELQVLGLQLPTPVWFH

| Binder | OD450 at 222 ng/ml Fc(gamma) RI [OD450] |
| --- | --- |
| PD-L1 analog-Fc fusion protein of SEQ ID NO: 26 (Fc fusion) FTITVSKDLYVVEYGGNVTMECKFPVEKQLNLFALIVYWEMEDKKIIQFVNGKEDLKVQHSSYSQRAQLLKDQLFLGKAALQITDVRLQDAGVYRCLIGYGGADYKRITLKVHAPYRNISQRISVDPVTSEHELMCQAEGYPEAEVIWTSSDHRVLSGKTTITNSNREEKLFNVTSTLNINATANEIFYCTFQRSGPEENNTAELVIPERLPVPASERTHFMILGPFQGGGSGGQDCPKCPAPEMLGGPSVFIFPPKPKDTLLIARTPEVTCVVVDLDPEDPEVQISWFVDGKQMQTAKTQPREEQFNGTYRVVSVLPIGHQDWLKGKQFTCKVNNKALPSPIERTISKARGQAHQPSVYVLPPSREELSKNTVSLTCLIKDFFPPDIDVEWQSNGQQEPESKYRTTPPQLDEDGSYFLYSKLSVDKSRWQRGDTFICAVMHEALHNHYTQESLSHSPG | 1.79 |
| PD-L1 analog-Fc fusion protein of SEQ ID NO: 22 (Fc fusion) FTITVSKDLYVVEYGGNVTMECKFPVEKQLNLFALIVYWEMEDKKIIQFVNGKEDLKVQHSSYSQRAQLLKDQLFLGKAALQITDVRLQDAGVYRCLIGYGGADYKRITLKVHAPYRNISQRISVDPVTSQGGGSGGQDCPKCPAPEMLGGPSVFIFPPKPKDTLLIARTPEVTCVVVDLDPEDPEVQISWFVDGKQMQTAKTQPREEQFNGTYRVVSVLPIGHQDWLKGKQFTCKVNNKALPSPIERTISKARGQAHQPSVYVLPPSREELSKNTVSLTCLIKDFFPPDIDVEWQSNGQQEPESKYRTTPPQLDEDGSYFLYSKLSVDKSRWQRGDTFICAVMHEALHNHYTQESLSHSPG | 1.91 |
| PD-L1 analog-Fc fusion protein of SEQ ID NO: 20 (Fc fusion) FTITVSKDLYVVEYGGNVTMECKFPVEKQLNLFALIVYWEMEDKKIIQFVNGKEDLKVQHSSYSQRAQLLKDQLFLGKAALQITDVRLQDAGVYRCLIGYGGADYKRITLKVHAPYRNISQRISVDPVTSGGGGQGGGSGGQGGGGGDCPKCPAPEMLGGPSVFIFPPKPKDTLLIARTPEVTCVVVDLDPEDPEVQISWFVDGKQMQTAKTQPREEQFNGTYRVVSVLPIGHQDWLKGKQFTCKVNNKALPSPIERTISKARGQAHQPSVYVLPPSREELSKNTVSLTCLIKDFFPPDIDVEWQSNGQQEPESKYRTTPPQLDEDGSYFLYSKLSVDKSRWQRGDTFICAVMHEALHNHYTQESLSHSPG | 1.97 |
| PD-L1 analog-Fc fusion protein of SEQ ID NO: 21 (Fc fusion) LIGYGGADYKRITLKVHAPYRNISQRISVDPVTSGGGGQGGGSGGQGGGGGDCPKCPAPEMLGGPSVFIFPPKPKDTLLIARTPEVTCVVVDLDPEDPEVQISWFVDGKQMQTAKTQPREEQFNGTYRVVSVLPIGHQDWLKGKQFTCKVNNKALPSPIERTISKARGQAHQPSVYVLPPSREELSKNTVSLTCLIKDFFPPDIDVEWQSNGQQEPESKYRTTPPQLDEDGSYFLYSKLSVDKSRWQRGDTFICAVMHEALHNHYTQESLSHSPG | 2.05 |
| PD-L1 analog-Fc fusion protein of SEQ ID NO: 24 (Fc fusion) LIGYGGADYKRITLKVHAPYRNISQRISVDPVTSEHELMCQAEGYPEAEVIWTSSDHRVLSGKTTITNSNREEKLFNVTSTLNINATANEIFYCTFQRSGPEENNTAELVIPERLPVPASERTHFMILGPFGGGGQGGGSGGQGGGGGDCPKCPAPEMLGGPSVFIFPPKPKDTLLIARTPEVTCVVVDLDPEDPEVQISWFVDGKQMQTAKTQPREEQFNGTYRVVSVLPIGHQDWLKGKQFTCKVNNKALPSPIERTISKARGQAHQPSVYVLPPSREELSKNTVSLTCLIKDFFPPDIDVEWQSNGQQEPESKYRTTPPQLDEDGSYFLYSKLSVDKSRWQRGDTFICAVMHEALHNHYTQESLSHSPG | 1.49 |

The next lines start with the values.

| OD450 at 222 ng/ml Fc(gamma) RI [OD450] | Binder |
| --- | --- |
| 1.78 | PD-L1 analog-Fc fusion protein of SEQ ID NO: 27 (Fc fusion) FTITVSKDLYVVEYGGNVTMECKFPVEKQLNLFALIVYWEMEDKKIIQFVNGKEDLKVQHSSYSQRAQLLKDQLFLGKAALQITDVRLQDAGVYRCLIGYGGADYKRITLKVHAPYRNISQRISVDPVTSEHELMCQAEGYPEAEVIWTSSDHRVLSGKTTITNSNREEKLFNVTSTLNINATANEIFYCTFQRSGPEENNTAELVIPERLPVPASERTHFMILGPFGGGGQGGGSGGQGGGGGDCPKCPAPEMLGGPSVFIFPPKPKDTLLIARTPEVTCVVVDLDPEDPEVQISWFVDGKQMQTAKTQPREEQFNGTYRVVSVLPIGHQDWLKGKQFTCKVNNKALPSPIERTISKARGQAHQPSVYVLPPSREELSKNTVSLTCLIKDFFPPDIDVEWQSNGQQEPESKYRTTPPQLDEDGSYFLYSKLSVDKSRWQRGDTFICAVMHEALHNHYTQESLSHSPG |
| 1.7 | PD-L1 analog-Fc fusion protein of SEQ ID NO: 32 (Fc fusion) FTITVSKDLYVVEYGGNVTMECKFPVEKQLNLFALIVYWEMEDKKIIQFVNGKEDLKVQHSSYSQRAQLLKDQLFLGKAALQITDVRLQDAGVYCCLIGYGGADYKRITLKVHAPYRNISQRISVDPVTSEHELMCQAEGYPEAEVIWTSSDHRVLSGKTTITNSNREEKLFNVTSTLNINATANEIFYCTFQRSGPEENNTAELVIPERLPVPASERTHFMILGPFGGGGQGGGSGGQGGGGGDCPKCPAPEMLGGPSVFIFPPKPKDTLLIARTPEVTCVVVDLDPEDPEVQISWFVDGKQMQTAKTQPREEQFNGTYRVVSVLPIGHQDWLKGKQFTCKVNNKALPSPIERTISKARGQAHQPSVYVLPPSREELSKNTVSLTCLIKDFFPPDIDVEWQSNGQQEPESKYRTTPPQLDEDGSYFLYSKLSVDKSRWQRGDTFICAVMHEALHNHYTQESLSHSPG |

From patent publication US20260035433A1
